Measurements: the supplement of paper PMC12042874
± gives the uncertainty stated by the source.

test: amyloid nucleation score (Sup35N fusion, yeast selection) (log enrichment); library NNK3; higher = more nucleation; inactive = no reads after selection
Procedure, shortened: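 Using DiMSum, nucleation scores were taken as the log enrichment of output over input reads, centred on the mode score of non-aggregating sequences. The input and output reads came from Illumina sequencing of plasmid inserts, with sequences under 100 input reads excluded. The yeast were psi-negative, expressed Sup35N fused to peptides of 20 random codons, were induced with 100 μM copper sulfate for 24 hours, and were grown 7 days at 30°C on medium lacking adenine and uracil.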

| Substance | amyloid nucleation score |
| --- | --- |
| FYVSSTP | inactive |
| FYWSLNSYVCASCMILFALM | inactive |
| GACRCNCSSSDDPQNKRNML | inactive |
| GACTHGRSSCDKIYLRYSYG | inactive |
| GAGTGQWLDSFGVEIHHPRS | inactive |
| GAGWTQAIAFIQS | inactive |
| GAGYL | inactive |
| GAMNVESLSMFMRVYYVPYR | inactive |
| GASREFQTCSVGVYYVAIEK | inactive |
| GATVLLSNFSVCPHMARSSG | inactive |
| GAVFSEWTQVRSCDCDGIDK | inactive |
| GCAGRSWTGYRVHAASV | inactive |
| GCFSV | inactive |
| GCHLFHWFIFAYCYHYEGTN | 1.91 ± 0.09 |
| GCIKGVICLTHC | inactive |
| GCISVVSL | inactive |
| GCKEL | inactive |
| GCLDQFGCGGTPVKVFATNV | -1.39 ± 2.5 |
| GCNREGTYSRPVLTATNGG | -0.152 ± 0.93 |
| GCRGVTVHSADCCDLSIYLC | 2.31 ± 0.082 |
| GDFLNCAFLTKIFEHQNNFW | 1.85 ± 0.077 |
| GDIRLGVAFRIFLSNCWGYF | inactive |
| GDMFGQPCRTCMFDLLKPVS | inactive |

| Substance | amyloid nucleation score |
| --- | --- |
| GDSFCFQLGVMCINHVRWY | 1.78 ± 0.09 |
| GDSNTSRLCAPSMRNVKAQL | inactive |
| GDVLLY | inactive |
| GDVNCLNTVTLKNNKTRGHI | inactive |
| GECPRQRVSLM | inactive |
| GEHSGRYYSNVSKNESMGVI | inactive |
| GEIANSQVRKWLIEMYSPVV | inactive |
| GEIRSKTTVLP | inactive |
| GERHMVLSVNLRCVTVNVYW | inactive |
| GESSP | inactive |
| GFFTYTTRSGDSSYGVEASA | -0.289 ± 1.1 |
| GFGDRMDNPSVVSK | inactive |
| GFHELRLH | inactive |
| GFIGECFFDHMGITFVLIET | inactive |
| GFIVSRERLNVMVLFSVYW | inactive |
| GFLLFLAVWRDTIGIVLVVL | inactive |
| GFMHTVRCIRIEPPQCRAVV | inactive |
| GFNYVFDSGEFGDRSFWHIY | inactive |
| GFTRKFSFYKRHQSVWITRR | inactive |
| GFWWVTRPSTPARLSSMSPQ | inactive |
| GFYAE | inactive |
| GGAVMMALWGGLS | inactive |
| GGHVSRRLHF | inactive |

| Substance | amyloid nucleation score |
| --- | --- |
| GGKAISNFEFLLILGPY | inactive |
| GGLCRGYQDMIMLWNMLQKQ | inactive |
| GGLQTERFLWRC | 0.13 ± 0.63 |
| GGMHRAYMESVSDVYLRKWW | 0.308 ± 0.21 |
| GHLFVNTRYFGNFLDSSQVR | inactive |
| GHTRDFKGSFDFPLNFY | inactive |
| GICEMVGTSYTFE | inactive |
| GIFVGPSVDSLLKLRARSHY | inactive |
| GIKFAGRRLTSEDL | inactive |
| GIKKTREPNCLVCIDIWIFI | 1.33 ± 0.07 |
| GILSISQNKISVHPLLLLRI | inactive |
| GISFFIMFILVPLFRKGVKV | inactive |
| GISILLSSYPRMCLLRLVGL | inactive |
| GIWSASRLKGNSLYCLLKNV | inactive |
| GIYFDSGLRGWHSLNHRCRR | 0.132 ± 0.59 |
| GIYSI | inactive |
| GKDSCKTTLVSRRLLRLKAP | inactive |
| GKFLVFAKVNVMVGCVLLFM | inactive |
| GKFNTCA | inactive |
| GKGFCLLVVSSVMRDVGLVQ | inactive |
| GKMLRWMKH | inactive |
| GKSIYCWFWVKMQEAERLMS | inactive |
| GKSSKDLHIFIMIRVWHYLT | inactive |

| Substance | amyloid nucleation score |
| --- | --- |
| GKSTVGMI | inactive |
| GKTLLTSKDGCV | inactive |
| GKTSGCWSFFYILIS | -0.388 ± 0.75 |
| GLCNNHIGKIFTYWNTPLDY | inactive |
| GLEAPTCPEVFNIGIFSYYH | 1.45 ± 0.068 |
| GLEVLVISIGAWLSLTLSFQ | inactive |
| GLISPRYATSSWLCQPIINF | inactive |
| GLLFYYMILLGELLQR | inactive |
| GLLLVRM | inactive |
| GLLMSMRSFFSGQVQNGAVL | inactive |
| GLLNSD | inactive |
| GLVHCNGSPAQITFKDTFNR | inactive |
| GLVSVLSDEMYCFWQYSCYS | 1.91 ± 0.091 |
| GLVWVN | inactive |
| GLWNDCKRWLRRS | inactive |
| GMRRFHNVRINVVSRWWFLE | 0.545 ± 0.28 |
| GMTVLLSMVI | inactive |
| GNCHDVWVYVLCTVGMSLMR | inactive |
| GNEIGITGVYGLHRSAKVVV | inactive |
| GNFCDCEDFHKGSAGLRWSG | inactive |
| GNFMNNGRLVASPLLREVCC | inactive |
| GNGVTPWPAEENSSRSPMPY | inactive |
| GNISGLNLVCEPIAVGSACE | -0.962 ± 1.9 |

| Substance | amyloid nucleation score |
| --- | --- |
| GNLWT | 0.637 ± 0.12 |
| GNSDR | inactive |
| GNSLWKSPCYL | inactive |
| GNSVRIAWQVWCTLCMTRQW | 0.356 ± 0.22 |
| GNVILCFMLNYSMISGNDM | 0.956 ± 0.17 |
| GNVQIDASIKKSNGRWYGSV | -0.063 ± 0.31 |
| GNWCSG | inactive |
| GNWQCFTEGRTPCYFCCITT | inactive |
| GNWSYVENYV | inactive |
| GPCFEVAVYYDATEMGKQSI | -0.507 ± 1.1 |
| GPGSYWEMRTN | inactive |
| GPLHMANYGYVLNIYLSCRN | 2.15 ± 0.06 |
| GPRMCMQLRS | inactive |
| GPTLSGLNIAHWSNIYQDLG | inactive |
| GQEGSRN | 0.186 ± 0.53 |
| GQKDCYFLIMYIREVLNRYT | inactive |
| GQSLLFRISLISCV | 0.199 ± 0.23 |
| GQWELGHFQCKVPYLLSQLL | inactive |
| GRCFKFCNLDT | inactive |
| GRIQPCISRAAGPDAGVMGL | inactive |
| GRMFVNVNFAIQCYMAFTYL | 2.42 ± 0.071 |
| GRNRHTYDRLYCPFVRSLIV | inactive |
| GRRYVLEENSVIISWCVIYY | inactive |

| Substance | amyloid nucleation score |
| --- | --- |
| GRTVTVWMFASVRRGVTGYV | inactive |
| GRTWFKYPHSDSGCSFWLTA | inactive |
| GSALSSLFQCLLFPLSVSVL | 0.49 ± 0.21 |
| GSDFTESCVDFFLVVNVDAV | inactive |
| GSDVMSGG | inactive |
| GSFMDHKTR | -0.382 ± 1.1 |
| GSFNFCSNAARFQ | inactive |
| GSFSCWYCEVVNVV | inactive |
| GSGGYWFMINVPENKIWVYL | 1.72 ± 0.11 |
| GSGRNLSVLVYRLWVDGPTG | inactive |
| GSICFNPTVWLVSRYRCS | 1.19 ± 0.12 |
| GSIDFSSSCECIGDWHHRGY | inactive |
| GSKYMQRHLNTI | inactive |
| GSLCFGLDSSPSTKIYLYDS | inactive |
| GSLIMSLAR | inactive |
| GSLMRVLLFEYLMDTCLWIV | inactive |
| GSSDNGFFCSLNMN | inactive |
| GSSTYLTDLPTSPPSVFSSL | inactive |
| GSVSYLNMTVFFSTVLFIYT | inactive |
| GSVTGAFERYVKKEA | inactive |
| GSWLNSYVELTCVFFGSFYM | inactive |
| GSYSNAHTPQF | 0.695 ± 0.2 |
| GTGEGNDLCARQNPLHQRII | inactive |

| Substance | amyloid nucleation score |
| --- | --- |
| GTLVWNCDGCLDLKGRWVGG | inactive |
| GTQCWLILCADNLNVLGIGL | 2.58 ± 0.065 |
| GTVLNSLPQQVGCLRLGSQG | inactive |
| GTVSSYLRTHSKVFSRRFRD | inactive |
| GTYPSKIKGFTLKGNLR | inactive |
| GVAELMGVWDVKLVVPLEES | inactive |
| GVAIAYHEFVDCSFFNYNIV | 2.38 ± 0.054 |
| GVAPYFQCVLIEEERVEGQG | inactive |
| GVHHDCDYCRYLDDDVKLWW | inactive |
| GVITISREDQYLAVGVIQWI | inactive |
| GVKLVPAAIVGYASLQGL | -0.375 ± 0.83 |
| GVNCLSLGSKIICGSTGWFL | 2.47 ± 0.087 |
| GVNDRGNKRYAPYKTWLRLE | inactive |
| GVNWFSIQFNIWVLSRDADL | 3.36 ± 0.06 |
| GVRHLYVPMFHFVIMGRWHH | inactive |
| GVSDVVFWSIGYHGRRISQS | inactive |
| GVVSCHSFSRRRKALRGYSS | inactive |
| GVVSSSPMCVNSDREVVEKT | inactive |
| GVWRLATHGYSQ | inactive |
| GWAMTWNDVYLSYSIYSHSK | 0.514 ± 0.4 |
| GWKLSSVGNKRDCSSMHVDR | 0.101 ± 0.19 |
